Data as given in patent publication US20250042970A1.

B1: Benlysta (antibody, INN chains, looked up, V domains shown)
VH: QVQLQQSGAEVKKPGSSVRVSCKASGGTFNNNAINWVRQAPGQGLEWMGGIIPMFGTAKYSQNFQGRVAITADESTGTASMELSSLRSEDTAVYYCARSRDLLLFPHHALSPWGRGTMVTVSS
VL: SSELTQDPAVSVALGQTVRVTCQGDSLRSYYASWYQQKPGQAPVLVIYGKNNRPSGIPDRFSGSSSGNTASLTITGAQAEDEADYYCSSRDSSGNHWVFGGGTELTVLG
B2: BION-1301 (antibody, INN chains, looked up, V domains shown)
VH: QVQLVQSGAEVKKPGASVKVSCKASGYTFTDYTIHWVRQATGQGLEWMGWIYPLRGSINYAQKFQGRVTMTADKSISTVYMELSSLRSEDTAVYFCARHGAYYSNAFDYWGQGTLVTVSS
VL: EIVMTQSPATLSVSPGERATLSCRASESVDNDGIRFLHWYQQKPGQAPRLLIYRASTRATGIPARFSGSGSRTEFTLTISSLQSEDFAVYYCQQSNKDPYTFGGGTKVEIK

How the values were obtained:
[1] = molecular target: human BAFF (Examples 21-23) (human) (UniProt Q9Y275); experiment: assay not given (Example 21)
[2] = molecular target: human APRIL (Examples 21-23) (human) (UniProt O75888); experiment: assay not given (Example 21)
human APRIL (Examples 21-23) (human), sequence (O75888 105-250 limits assumed): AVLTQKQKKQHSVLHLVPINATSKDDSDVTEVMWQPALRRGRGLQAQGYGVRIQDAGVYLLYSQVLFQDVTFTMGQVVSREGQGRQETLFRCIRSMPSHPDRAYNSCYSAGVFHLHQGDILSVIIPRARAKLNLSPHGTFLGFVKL

| Binder | Kd [1] | Kd [2] |
| --- | --- | --- |
| B1 | 0.0023 nM |  |
| B2 |  | 0.4 nM |
